Here are results for 14 molecules from patent publication US20230235048A1 (PROTHENA BIOSCIENCES, published 2023).

Assay [1] deals with T1, extracellular domain (ECD) of recombinant human Sortilin with a C-terminal HIS tag (ECD-huSortilin-HIS) (human, UniProt Q99523 78-755).
T1 construct: Bought (R&D Systems); also called human sortilin-ECD; not shown: C-terminal HIS tag
T1 sequence: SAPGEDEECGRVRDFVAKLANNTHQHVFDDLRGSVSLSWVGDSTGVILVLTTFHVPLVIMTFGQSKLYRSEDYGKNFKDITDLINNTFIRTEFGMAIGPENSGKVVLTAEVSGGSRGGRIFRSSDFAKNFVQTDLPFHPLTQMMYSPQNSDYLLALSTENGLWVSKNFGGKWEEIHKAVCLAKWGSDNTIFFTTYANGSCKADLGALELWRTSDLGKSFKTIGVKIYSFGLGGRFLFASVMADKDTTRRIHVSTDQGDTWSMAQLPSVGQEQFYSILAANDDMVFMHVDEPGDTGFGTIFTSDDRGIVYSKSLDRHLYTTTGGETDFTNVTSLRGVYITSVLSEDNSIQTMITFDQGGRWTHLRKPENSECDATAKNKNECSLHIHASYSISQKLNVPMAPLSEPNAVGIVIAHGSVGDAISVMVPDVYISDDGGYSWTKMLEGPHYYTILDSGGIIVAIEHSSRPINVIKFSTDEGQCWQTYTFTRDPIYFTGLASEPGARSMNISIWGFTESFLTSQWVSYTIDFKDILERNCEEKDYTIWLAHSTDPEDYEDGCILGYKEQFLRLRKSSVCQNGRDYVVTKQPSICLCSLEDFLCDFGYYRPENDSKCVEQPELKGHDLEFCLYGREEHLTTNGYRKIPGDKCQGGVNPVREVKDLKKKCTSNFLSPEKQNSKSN
The assay is described as follows: ELISA, ECD-huSortilin-HIS coated at 1 ug/mL, goat anti-human IgG-HRP, chemiluminescence. On the procedure:
384-well ELISA plates were coated with 1 ug/mL recombinant ECD-huSortilin-HIS (20 uL/well) and incubated overnight at 4° C. all plates were blocked with 3% BSA in PBS for 1 hour at room temperature. Plates were then washed with Tris buffered saline containing 0.1% Tween20 (TBST) three times. 20 uL of humanized anti-Sortilin mAbs diluted 3-fold from 20 ug/mL to 0.3 ng/mL in 1% BSA in TBST were added to the wells, incubated for 1 hour at room temperature and then washed as above. Goat anti-human IgG specific-HRP (Jackson Immunoresearch) diluted 1:7000 in 1% BSA in TBST was then added at 20 uL per well to react with the bound antibodies and plates were incubated for 1 hour before being washed as above. Super signal Pico chemiluminescent ELISA substrate (ThermoFisher) was used for detection. 20 uL of substrate was added to each well and Relative Light Units (RLU) were measured immediately using the SpectraMax Paradigm (Molecular Devices). Data was analyzed and EC₅₀ was calculated using graphed Prism.

The target of assay [2] is T1, extracellular domain (ECD) of …. Put plainly: SPR (Biacore T200), mAb captured by anti-human antibody on CM5, Sortilin 0.1-300 nM as analyte, global 1:1 fit. On the procedure:
Analysis was performed using a Biacore T200 to compare the binding affinity of chimeric and humanized antibodies to recombinant human Sortilin. Anti-Human antibody was immobilized on sensor chip CM5 (GE Healthcare Life Sciences) via amine coupling, and humanized antibodies (ligand) were captured to a level to ensure a maximum binding of analyte of 50 RU (approximately 100 RU of ligand binding). Various concentrations of Sortilin (ranging from 0.1 nM to 300 nM) were passed over the captured ligand at 50 μL/min in running buffer (HBS+0.05% P-20, 1 mg/mL BSA) for 300s association time and 1200s dissociation time. Regeneration of the chip surface was accomplished by 2 short injections of 3M MgCl. Data was blank subtracted to both a sensor not containing ligand and 0 nM analyte concentration. Analysis was performed using a global 1:1 fit with Biacore Insight Evaluation software (v2.0) with bulk refractive index set to zero RU.

B1: humanized 11M14 hu11M14VHv1b/hu11M14VLv2b (antibody, V domains shown)
VH: EVQLVESGGGLVQPGGSLRLSCAASGFTFNIYGMSWVRQAPGKGLEWVATISSGGIYTYYPDILKGRFTISRDNAKNSLYLQMNSLRAEDTAVYYCARHPGGAMDYWGQGTLVTVSS
VL: DIQMTQSPSSLSASVGDRVTITCRVSENIYSNLAWYQQKPGKSPKLLVYAATNLADGVPSRFSGSGSGTDYTLTISSLQPEDFATYYCQHFWGTPPWTFGQGTKLEIK
notes: Human IgG; also called 11M14H1bL2b
As to B1, the EC50 in assay [1] amounted to 0.08 µg/mL. In assay [2], the Kd was 5.37 nM, the koff came out at 0.00193 s⁻¹ and the kon worked out at 360000 M⁻¹ s⁻¹.

B2: humanized 11M14 hu11M14VHv2b/hu11M14VLv2b (antibody, V domains shown)
VH: EVQLVESGGGLVQPGGSLRLSCAASGFTFNIYGMSWVRQAPGKGLEWVATISSGGIYTYYPDILKGRFTISRDNAKNSLYLQMNSGRAEDTAVYYCARHPGGAMDYWGQGTLVTVSS
VL: DIQMTQSPSSLSASVGDRVTITCRVSENIYSNLAWYQQKPGKSPKLLVYAATNLADGVPSRFSGSGSGTDYTLTISSLQPEDFATYYCQHFWGTPPWTFGQGTKLEIK
notes: Human IgG; also called 11M14H2bL2b
As for B2, the EC50 in assay [1] was 0.07 µg/mL. In assay [2], the Kd amounted to 2.86 nM, the koff is 0.0012 s⁻¹ and the kon was 421000 M⁻¹ s⁻¹.

B3: humanized 11M14 hu11M14VHv3b/hu11M14VLv2b (antibody, V domains shown)
VH: EVQLVESGGGLVQPGGSLRLSCAASGFTFNIYGMSWVRQAPGKGLEWVATISSGGIYTYYPDILKGRFTISRDNAKNSLYGQMNSLRAEDTAVYYCARHPGGAMDYWGQGTLVTVSS
VL: DIQMTQSPSSLSASVGDRVTITCRVSENIYSNLAWYQQKPGKSPKLLVYAATNLADGVPSRFSGSGSGTDYTLTISSLQPEDFATYYCQHFWGTPPWTFGQGTKLEIK
notes: Human IgG; also called 11M14H3bL2b
Consider B3, for which the EC50 in assay [1] came to 0.19 µg/mL. Moreover, in assay [2], the Kd was determined as 7.07 nM, the koff stood at 0.00225 s⁻¹ and the kon is 319000 M⁻¹ s⁻¹.

B4: humanized 11M14 hu11M14VHv2b/hu11M14VLv3b (antibody, V domains shown)
VH: EVQLVESGGGLVQPGGSLRLSCAASGFTFNIYGMSWVRQAPGKGLEWVATISSGGIYTYYPDILKGRFTISRDNAKNSLYLQMNSGRAEDTAVYYCARHPGGAMDYWGQGTLVTVSS
VL: DIQMTQSPSSLSASVGDRVTITCRVSENIYSNLAWYQQKPGKSPKLLVYAATNGADGVPSRFSGSGSGTDYTLTISSLQPEDFATYYCQHFWGTPPWTFGQGTKLEIK
notes: Human IgG; also called 11M14H2bL3b
Regarding B4, the EC50 in assay [1] was determined as 0.13 µg/mL. Besides, in assay [2], the Kd worked out at 2.99 nM, the koff turned out to be 0.00119 s⁻¹ and the kon worked out at 398000 M⁻¹ s⁻¹.

B5: humanized 11M14 hu11M14VHv2b/hu11M14VLv4b (antibody, V domains shown)
VH: EVQLVESGGGLVQPGGSLRLSCAASGFTFNIYGMSWVRQAPGKGLEWVATISSGGIYTYYPDILKGRFTISRDNAKNSLYLQMNSGRAEDTAVYYCARHPGGAMDYWGQGTLVTVSS
VL: DIQMTQSPSSLSASVGDRVTITCRVSENIYSNLAWYQQKPGKSPKLLVYAATNIADGVPSRFSGSGSGTDYTLTISSLQPEDFATYYCQHFWGTPPWTFGQGTKLEIK
notes: Human IgG; also called 11M14H2bL4b
B5: in assay [1], the EC50 stood at 0.1 µg/mL. Besides, in assay [2], the Kd turned out to be 2.84 nM, the koff worked out at 0.00117 s⁻¹ and the on-rate (kon) worked out at 413000 M⁻¹ s⁻¹.

B6: humanized 11M14 hu11M14VHv1b/hu11M14VLv3b (antibody, V domains shown)
VH: EVQLVESGGGLVQPGGSLRLSCAASGFTFNIYGMSWVRQAPGKGLEWVATISSGGIYTYYPDILKGRFTISRDNAKNSLYLQMNSLRAEDTAVYYCARHPGGAMDYWGQGTLVTVSS
VL: DIQMTQSPSSLSASVGDRVTITCRVSENIYSNLAWYQQKPGKSPKLLVYAATNGADGVPSRFSGSGSGTDYTLTISSLQPEDFATYYCQHFWGTPPWTFGQGTKLEIK
notes: Human IgG; also called 11M14H1bL3b; hu11M14H1bL3b
As to B6, the EC50 in assay [1] amounted to 0.07 µg/mL. Further, in assay [2], the equilibrium dissociation constant (Kd) came out at 5.3 nM, the koff was 0.002 s⁻¹ and the on-rate constant (kon) is 377000 M⁻¹ s⁻¹.

B7: humanized 11M14 hu11M14VHv1b/hu11M14VLv4b (antibody, V domains shown)
VH: EVQLVESGGGLVQPGGSLRLSCAASGFTFNIYGMSWVRQAPGKGLEWVATISSGGIYTYYPDILKGRFTISRDNAKNSLYLQMNSLRAEDTAVYYCARHPGGAMDYWGQGTLVTVSS
VL: DIQMTQSPSSLSASVGDRVTITCRVSENIYSNLAWYQQKPGKSPKLLVYAATNIADGVPSRFSGSGSGTDYTLTISSLQPEDFATYYCQHFWGTPPWTFGQGTKLEIK
notes: Human IgG; also called 11M14H1bL4b
With B7, the EC50 in assay [1] stood at 0.08 µg/mL. In assay [2], the Kd is 5.32 nM, the koff is 0.0019 s⁻¹ and the kon was 357000 M⁻¹ s⁻¹.

B8: humanized 5E20 hu5E20VHv1/hu5E20VLv1 (antibody, V domains shown)
VH: EVQLLESGGGLVQPGGSLRLSCAASGFTFSTYGMSWVRQAPGKGLEWVAIISSGGSYTYYSDTVKGRFTISRDNSKNTLYLQMNSLRAEDTAVYYCSRSSSHWYFDVWGQGTLVTVSS
VL: DIQMTQSPSSLSASVGDRVTITCHASQGISSNIGWLQQKPGKAFKGLIYHGTNLKDGVPSRFSGSGSGADFTLTISSLQPEDFATYFCVQYAQFPYTFGGGTKVEIR
notes: Human IgG (detected or captured with anti-human IgG; huIgG1 control); also called 5E20H1L1
In the case of B8, in assay [1], the EC50 was found to be 0.12 µg/mL.

B9: humanized 5E20 hu5E20VHv2/hu5E20VLv1 (antibody, V domains shown)
VH: EVQLVESGGGLVQPGGSLRLSCAASGFTFSTYGMSWVRQAPGKGLEWVAIISSGGSYTYYSDTVKGRFTISRDNSKNSLYLQMNSLRAEDTAVYYCSRSSSHWYFDVWGQGTLVTVSS
VL: DIQMTQSPSSLSASVGDRVTITCHASQGISSNIGWLQQKPGKAFKGLIYHGTNLKDGVPSRFSGSGSGADFTLTISSLQPEDFATYFCVQYAQFPYTFGGGTKVEIR
notes: Human IgG; also called 5E20H2L1
Regarding B9, in assay [1], the EC50 was found to be 0.12 µg/mL.

B10: humanized 5E20 hu5E20VHv2/hu5E20VLv3 (antibody, V domains shown)
VH: EVQLVESGGGLVQPGGSLRLSCAASGFTFSTYGMSWVRQAPGKGLEWVAIISSGGSYTYYSDTVKGRFTISRDNSKNSLYLQMNSLRAEDTAVYYCSRSSSHWYFDVWGQGTLVTVSS
VL: DIQMTQSPSSVSASVGDRVTITCHASQGISSNIGWLQQKPGKAFKGLIYHGTNLKDGVPSRFSGSGSGADFTLTISSLQPEDFATYFCVQYAQFPYTFGQGTKVEKR
notes: Human IgG; also called 5E20H2L3
Consider B10, for which, in assay [1], the EC50 came to 0.1 µg/mL.

B11: humanized 5E20 hu5E20VHv1/hu5E20VLv2 (antibody, V domains shown)
VH: EVQLLESGGGLVQPGGSLRLSCAASGFTFSTYGMSWVRQAPGKGLEWVAIISSGGSYTYYSDTVKGRFTISRDNSKNTLYLQMNSLRAEDTAVYYCSRSSSHWYFDVWGQGTLVTVSS
VL: DIQMTQSPSSVSASVGDRVTITCHASQGISSNIGWLQQKPGKAFKGLIYHGTNLKDGVPSRFSGSGSGADFTLTISSLQPEDFATYFCVQYAQFPYTFGQGTKVEIR
notes: Human IgG; also called 5E20H1L2
For the molecule B11, in assay [1], the EC50 is 0.12 µg/mL.

B12: humanized 5E20 hu5E20VHv1/hu5E20VLv3 (antibody, V domains shown)
VH: EVQLLESGGGLVQPGGSLRLSCAASGFTFSTYGMSWVRQAPGKGLEWVAIISSGGSYTYYSDTVKGRFTISRDNSKNTLYLQMNSLRAEDTAVYYCSRSSSHWYFDVWGQGTLVTVSS
VL: DIQMTQSPSSVSASVGDRVTITCHASQGISSNIGWLQQKPGKAFKGLIYHGTNLKDGVPSRFSGSGSGADFTLTISSLQPEDFATYFCVQYAQFPYTFGQGTKVEKR
notes: Human IgG; also called 5E20H1L3
B12: the EC50 in assay [1] is 0.09 µg/mL.

B13: humanized 5E20 hu5E20VHv2/hu5E20VLv2 (antibody, V domains shown)
VH: EVQLVESGGGLVQPGGSLRLSCAASGFTFSTYGMSWVRQAPGKGLEWVAIISSGGSYTYYSDTVKGRFTISRDNSKNSLYLQMNSLRAEDTAVYYCSRSSSHWYFDVWGQGTLVTVSS
VL: DIQMTQSPSSVSASVGDRVTITCHASQGISSNIGWLQQKPGKAFKGLIYHGTNLKDGVPSRFSGSGSGADFTLTISSLQPEDFATYFCVQYAQFPYTFGQGTKVEIR
notes: Human IgG; also called 5E20H2L2
Turning to B13, the 50% effective concentration (EC50) in assay [1] was 0.08 µg/mL.

B14: chimeric 11M14 (antibody, human IgG1, kappa, L234A L235A, V domains shown)
VH: EVQLVESGGDLVKPGGSLKLSCAASGFTFNIYGMSWVRQTPDKRLEWVATISSGGIYTYYPDILKGRFTISRDNAKNTLYLQMSSLKSEDTAMYYCARHPGGAMDYWGQGTSVTVSS
VL: DIQMTQSPASLSVSVGETVTITCRVSENIYSNLAWYQQKQGKSPHLLVYAATNLADGVPSRFSGSGSGTQYSLKINSLQSEDFGSYYCQHFWGTPPWTFGGGTKLEIKR
With B14, the EC50 in assay [1] was 0.06 µg/mL. The Kd in assay [2] turned out to be 2.52 nM.
